Experimental findings from patent US20210269517A1, “METHOD OF TREATING WASTING DISORDERS” (CSL Limited, priority 2018, published 2021) are described below.

Test [1] relates to visceral epididymal adipose tissue. As to the kind of experiment: Forskolin-stimulated lipolysis in adipose tissue explants in the presence of Atglistatin. It counts as cell-based, mice. To be noted: 5 μM Atglistatin, 10 μM forskolin. How it is done:
Male C57BL/6 wild-type mice and aged matched Vegfb^−/− mice (12 weeks old) were subjected to 14 hours of overnight fasting. Animals were sacrificed using carbon dioxide anaesthetics and visceral epididymal adipose tissue was surgically removed, washed in DPBS, and incubated in prewarmed (37° C.) DMEM (Dulbecco's modified Eagle's medium (DMEM, 1 g/l glucose; GIBCO, Life Technologies, Carlsbad, Calif.) until use. For measurements of forskolin-stimulated lipolysis, the adipose tissue pieces (20±5 mg) were pre-incubated in 200 μl DMEM containing 2% BSA (FA-free; Sigma-Aldrich) or 10 μM forskolin (Sigma-Aldrich) in the presence or absence of or 5 μM Atglistatin (Sigma-Aldrich) in 96-well plates at 37° C., 5% CO2, and 95% humidified atmosphere for 60 min. For measurements of basal lipolysis no pre-incubation was performed. Adipose tissue explants were transferred into 200 μl of identical fresh medium and incubated for further 60 min (=period of measurement) at 37° C., 5% CO2, and 95% humidified atmosphere. FA content was determined from the incubation media using a NEFA kit (Wako chemicals). The total amount of protein was measured by transferring the tissue explants into 1 ml extraction solution (Chloroform/methanol (2:1, v/v), 1% glacial acetic acid) and incubated for 60 min at 37° C. under vigorous shaking. […] Protein content of the adipose tissue explant lysates was determined from the lysed solution using BCA reagent kit (Pierce) and BSA as standard. The rate of lipolysis rate was calculated as the amount of NEFAs/mg protein/hrs. […]
Mice carrying the lox-containing gene construct allowing for Cre recombinase-mediated tissue specific ablation of Vegfb (Vegfb Flox+ mice) were generated by Taconic Artemis (Cologne, Germany). […] FA content was determined from the incubation media using a NEFA kit (Wako chemicals). The total amount of protein was measured by transferring the tissue explants into 1 ml extraction solution (Chloroform/methanol (2:1, v/v), 1% glacial acetic acid) and incubated for 60 min at 37° C. under vigorous shaking. […]

The target of test [2] is T1, VEGF-B (Mus musculus, UniProt P49766).
T1 construct: endogenous in cells; host or cells: C57BL/6 male mice (in vivo)
T1 sequence (P49766 22-207): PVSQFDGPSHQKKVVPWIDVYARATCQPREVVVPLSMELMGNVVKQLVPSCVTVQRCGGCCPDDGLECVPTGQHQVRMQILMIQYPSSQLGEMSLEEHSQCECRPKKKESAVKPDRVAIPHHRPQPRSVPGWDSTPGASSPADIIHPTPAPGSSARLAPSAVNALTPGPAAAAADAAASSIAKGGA
The test is described as follows: Body weight and blood glucose in chow-fed and overnight-fasted mice treated with anti-VEGF-B antibody. It counts as in vivo, C57BL/6 mice. To be noted: fed or fasted state (14 h overnight); 400 μg i.p. twice weekly, 3 injections; vs isotype control. The method, then: Male C57BL/6 wild-type mice and aged matched (12 weeks) Vegfb^+/− and Vegfb^−/− mice were subjected to 14 hours of overnight fasting. Body weight and blood glucose levels were recorded before and after fasting. Body weight drop was calculated as a percentage of weight loss determined by recording body weight in the fasted and fed state. Glucose measurements were performed using a Bayer Contour Glucose meter on blood from the tail vein. Statistical analyses were performed using one-way ANOVA.
(§1) C57BL/6 male mice purchased from Janvier labs and injected with 3 consecutive injections intraperitoneally (i.p.) twice weekly with 400 μg of anti-VEGF-B antibody (2H10) or an isotype matched control antibody. At the age of 12-16 weeks animals were subjected to 14 hours of overnight fasting. Body weight and blood glucose levels were determined as described above.

Test [3] has as its target T1, VEGF-B. As to the kind of experiment: Plasma NEFAs, glycerol, triglycerides and insulin in fasting-induced lipolysis. The test is classed as in vivo, C57BL/6 mice. The method, then:
Male C57BL/6 mice and aged matched Vegfb^+/− and Vegfb^−/− (12 weeks old) mice were subjected to 14 hours of overnight fasting. Animals were sacrificed using carbon dioxide anaesthetics and total blood was removed by cardiac puncture. Blood was centrifuged at 14000 rpm, 4° C. for 10 minutes, serum was separated and frozen in aliquots at −80° C. Commercially available kits were used for enzymatic determination of non-esterified fatty acids (NEFAs; Wako Chemicals), glycerol (Abcam), triglycerides (TAGs; Sigma-Aldrich) and insulin (Mercodia). Statistical analyses were performed using one-way ANOVA.
as §1
C57BL/6 male mice were treated with an anti-VEGF-B antibody (2H10) or an isotype matched control antibody as described above. At the age of 12-16 weeks animals were subjected to 14 hours of overnight fasting, sacrificed using carbon dioxide anaesthetics and total blood removed by cardiac puncture and processed as described above. Enzymatic determination of NEFAs (Wako Chemicals) and glycerol (Abcam), triglycerides (Sigma-Aldrich) and insulin (Mercodia) was performed as previously described.

For test [4], the target named is T1, VEGF-B. As to the kind of experiment: Ex vivo lipolysis rate in visceral epididymal adipose tissue of antibody-treated mice. Details: species or system C57BL/6 mice. To be noted: vs control treated. The method, then:
Male C57BL/6 wild-type mice and aged matched Vegfb^−/− mice (12 weeks old) were subjected to 14 hours of overnight fasting. […] FA content was determined from the incubation media using a NEFA kit (Wako chemicals). The total amount of protein was measured by transferring the tissue explants into 1 ml extraction solution (Chloroform/methanol (2:1, v/v), 1% glacial acetic acid) and incubated for 60 min at 37° C. under vigorous shaking. […] Protein content of the adipose tissue explant lysates was determined from the lysed solution using BCA reagent kit (Pierce) and BSA as standard. The rate of lipolysis rate was calculated as the amount of NEFAs/mg protein/hrs. […]
C57BL/6 male mice purchased from Janvier labs and injected with 3 consecutive injections intraperitoneally (i.p.) twice weekly with 400 μg of anti-VEGF-B antibody (2H10) or an isotype matched control antibody. […] Body weight and blood glucose levels were determined as described above.
C57BL/6 male mice were treated with an anti-VEGF-B antibody (2H10) or an isotype matched control antibody as described above. […] Basal and forskolin-stimulated lipolysis was measured as previously described above.

Test [5] has as its target T1, VEGF-B. As to the kind of experiment: Hepatic lipid droplet quantification (adipophilin) during fasting-induced lipolysis. To be noted: vs control treated. It counts as in vivo, C57BL/6 mice. How it is done:
Male C57BL/6 mice and aged matched (12 weeks) Vegfb^+/− and Vegfb^−/− mice were subjected to 14 hours of overnight fasting. Animals were sacrificed using carbon dioxide anaesthetics and livers and hearts were dissected. For Oil Red 0 (ORO) analysis, liver biopsies were embedded in Tissue-Tek® (Sakura) directly on the mould of the cryostat. Cryo sections (12 μm) were immersed either 5 min (liver) or 8 min (heart) in ORO working solution (2.5 g oil red 0 (Sigma-Aldrich), dissolved in 400 ml 99% isopropanol, further diluted 6:10 in H2O, filtered through a […] filter (Corning). Thereafter the sections were submerged for 3 secs in hematoxylin solution followed by short submerging in LiCO3 (for liver) and rinsed for 10 min under running tap water before they were mounted. Stained sections were examined with bright field microscopy. At least 10 frames per animal within each section were photographed with an Axio Vision microscope (Carl Zeiss) at 20× magnification. The amount of neutral lipids was quantified using Axio Vision Run wizard program for liver or heart ORO staining (pixel^2/μm^2). For measurements of lipid droplets, liver biopsies were fixed in 4% PFA for 24 hours and subsequently processed for paraffin embedding using standard procedures and 4 μm sections were prepared. Antigen retrieval was performed using Antigen retrieval solution Ph6 (Dako #S2367) and heating at 98° C. for 10 min. Sections were incubated at 4° C. overnight with guinea pig anti-adipophilin (Fitzgerald) antibody. […] The amount of lipid droplets was quantified using Axio Vision Run wizard program for hepatic adipophilin+staining (pixel^2/μm^2 or arbitrary units).
C57BL/6 male mice purchased from Janvier labs and injected with 3 consecutive injections intraperitoneally (i.p.) twice weekly with 400 μg of anti-VEGF-B antibody (2H10) or an isotype matched control antibody. […] Body weight and blood glucose levels were determined as described above. […]

Setting [6] is: chow-fed mice, vs isotype control.
[7] abbreviates: fasted mice, between treatment groups.

Consider `CN(C)C(=O)Nc1cccc(-c2ccc(N(C)C)cc2)c1` [Atglistatin], for which the Forskolin-stimulated lipolysis rate entry in test [1] (explants of AdiCre/Vegfb Flox+, WT/WT, WT/Vegfb Flox+ and AdiCre/WT mice) is on record as “inhibited”. The Forskolin-stimulated lipolysis entry in test [1] (explants of anti-VEGF-B and control treated C57BL/6 mice) is given as “decreased”; in test [1] (explants of wild-type and Vegfb−/− mice) it was “decreased”.

B1: 2H10: anti-VEGF-B antibody comprising a VH of SEQ ID NO: 3 and a VL of SEQ ID NO: 4 (antibody, V domains shown)
VH: VQLQQPGTELVKPGASVKLSCKASGYTFTGFWIHWVKQRPGQGLEWIGHINPGNGGTNYNEKFKRMATLTVDKSSSTAYMQLSSLTSEDSAVYYCARSYSNYVRAMDYWGQGTSVTVSS
VL: IQMTQTTSSLSASLGDRVTISCRASQDISNFLNWYQQKPDGTVKLLIYYTSTLHSGVPSRFSGSGSGTDYSLTISNLEQEDIATYFCQQGKTLPPTFGGGTKLEIK
modifications: amino acid sequence from a VH of antibody 2H10; amino acid sequence from a VL of antibody 2H10
Consider B1, for which, in test [2], the Blood glucose levels result is on record as “does not Influence” and the Body weight result is listed as “does not Influence”. In addition, in test [3] (setting [6]), the Plasma insulin levels entry is recorded as “significant increase”, the “Plasma levels of NEFAs” value is given as “did not alter”, the “Plasma levels of TAGs” value is “did not alter” and the “Plasma levels of glycerol” value is recorded as “did not alter”. For the same molecule, in test [3] (fasted mice (14 h overnight)), the “Plasma levels of NEFAs” value is reported as “not increased” and the “Plasma levels of glycerol” value is given as “not increased”. For the same molecule, in test [3] (setting [7]), the “Fasting plasma TAG levels” value is “No differences” and the “Fasting plasma insulin levels” value is “No differences”. Moreover, in test [4] (10 μM forskolin), the Forskolin-stimulated lipolysis rate entry is reported as “No effect”. Besides, the Basal lipolysis rate result in test [4] (adipose tissue of fasted mice) is recorded as “significantly reduces”. Moreover, in test [5] (fasting conditions (fasting-induced lipolysis)), the Hepatic lipid accumulation entry is recorded as “inhibited”. The Hepatic lipid accumulation result in test [5] (fasting conditions (fasting-induced lipolysis), listed as anti-VEGF-B) is on record as “significantly reduced”. Also, in test [5] (fed conditions), the Hepatic lipid accumulation entry is “significantly reduced”.
